The text below walks through data of patent US20140178384A1 (INSTITUT PASTEUR, published 2014).

The experiment concerns the target T1, p75 neurotrophin receptor on rat embryonic motor neurons (rat, UniProt P07174 30-425).
T1 sequence (looked up): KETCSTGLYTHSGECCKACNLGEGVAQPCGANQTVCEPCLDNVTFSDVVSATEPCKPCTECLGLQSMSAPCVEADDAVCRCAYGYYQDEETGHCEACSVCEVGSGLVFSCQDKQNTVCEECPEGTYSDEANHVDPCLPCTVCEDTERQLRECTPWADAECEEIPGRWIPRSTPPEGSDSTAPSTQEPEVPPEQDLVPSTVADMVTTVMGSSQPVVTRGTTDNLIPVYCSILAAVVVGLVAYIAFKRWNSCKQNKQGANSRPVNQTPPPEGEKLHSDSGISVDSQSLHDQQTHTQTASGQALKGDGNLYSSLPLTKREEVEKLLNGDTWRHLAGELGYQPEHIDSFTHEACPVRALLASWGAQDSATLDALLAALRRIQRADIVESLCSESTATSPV
Description: cell-based or functional assay.

B1: peroxynitrite-treated NGF (mouse NGF nitrated by peroxynitrite) (ligand)
chain: SSTHPVFHMGEFSVCDSVSVWVGDKTTATDIKGKEVTVLAEVNINNSVFRQYFFETKCRASNPVESGCRGIDSKHWNSYCTTTHTFVKALTTDEKQAAWRFIRIDTACVCVLSRKATR
modifications: nitro groups on Tyr52 and Trp99 (the species identified by mass spectrometry); up to five nitro groups and methionine oxidation suggested
With B1, the “fold increase of apoptotic activity against native NGF” value is 10000 fold.
